T1: human BAFFR overexpressed on 293T cells (human, UniProt Q96RJ3 1-184)
T1 construct: whole, on cells
T1 sequence (looked up): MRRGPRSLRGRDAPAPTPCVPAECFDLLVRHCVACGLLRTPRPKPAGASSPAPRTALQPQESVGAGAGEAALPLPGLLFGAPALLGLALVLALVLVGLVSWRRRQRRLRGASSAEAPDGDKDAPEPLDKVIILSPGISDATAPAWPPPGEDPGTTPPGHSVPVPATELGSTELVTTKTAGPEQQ

B1: NB467-88 (Fc fusion)
chain: EVQVVESGGGLVQPGGSLRLSCAASGFRLNYYAIGWFRQAPGKEREGVSCISSGGDRIYYADSVKGRFTISRDNAKNTVYLQMNSLKPEDTAVYYCAADLYYSGSYYYRSCNPAESGYWGQGTQVTVSS
notes: also called anti-BAFFR nanobody NB467-88; antibody NB467-88; not shown: Human IgG1 Fc fused to the VHH
B2: NB467-71 (Fc fusion)
chain: EVQVVESGGGLVQSGGSLRLSCVASGFNLDHYAIGWFRQIPGKEREGVSCISSGGDSTFYIDSVKGRFTISRDNAKNTVYLQMNSLKPEDTAVYHCAADVYYSGNYLYRSCNPHESKYWGQGTQVTVSS
notes: also called anti-BAFFR nanobody NB467-71; antibody NB467-71; not shown: Human IgG1 Fc fused to the VHH
B3: NB467-7 (Fc fusion)
chain: QVQLVESGGGSVHPGGSLRLSCAGSGFTLAGYAIGWFRQAPGKEREGVSCINSSGGSTYYADSVKGRFTISRDNAKNTVYLQMNSLKPEDTAVYYCAADVYYSGSYLYRSCNPTESKYWGQGTQVTVSS
notes: also called anti-BAFFR nanobody NB467-7; antibody NB467-7; not shown: Human IgG1 Fc fused to the VHH

Target: T1, human BAFFR overexpressed on 293T cells
Assay: flow cytometry on HEK-293T-BAFFR cells, anti-human Fc-647 secondary antibody
Description: The cells were resuspended in a suitable volume of staining solution for flow cytometry, so that the final cell concentration per tube reached 2×10⁵ cells/mL.
The antibodies NB467-7, NB467-71, and NB467-88 produced in Example 1 and the control antibody were diluted to 200 nM, respectively. […] After incubation, the cells were washed once with a FACS buffer.
The anti-human FC-647 secondary antibody (Jackson, 109-605-003) was diluted according to the instructions, and 100 μL of the diluted secondary antibody was added to a sample tube. After uniform mixing, the system was incubated at 4° C. for 60 min. After incubation, the cells were washed 3 times with FACS, and the cell precipitate obtained by centrifugation was resuspended in 200 μL of PBS and detected by flow cytometry (Sony, SA3800).

Binder	EC50 [nM]
B1	1.31
B2	10.6
B3	6.73

Source: US20260207669A1 (TIANJIN MEDICAL UNIVERSITY GENERAL HOSPITAL, published 2026)
